Results published in paper PMC5411485.

Tested on: ScNsrR wild type, [4Fe-4S] holo (Streptomyces coelicolor)
Assay: EMSA
Conditions: EMSA: 10 mM Tris, 54 mM KCl, 0.3% glycerol, 1.32 mM glutathione, pH 7.2, on ice ~10 min; 5% PAGE in 1x TBE

Work on hmpA1 promoter probe yielded a K half ([4Fe-4S] protein:DNA ratio) of under 2.
